± gives the uncertainty stated by the source.
Assay: protein stability index of a GFP-peptide fusion (yeast GPS) (PSI 1-4); higher = more stable; sorted into four equal gates, so the index is relative within each strain
Procedure, shortened: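 Mid-log yeast cultures in leucine-free medium, carrying a pooled plasmid library, were sorted into four equal gates by their GFP/Cherry fluorescence ratio. Each plasmid expressed Cherry along with GFP fused upstream of a tiled 17-residue yeast protein peptide. Plasmids recovered from each gate were PCR-amplified and Illumina-sequenced, with reads assigned to strains by barcodes. The protein stability index was obtained by summing each gate's read frequency weighted by its gate number.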

## TLKDYQIKGLQWMVSLF [SNF2]
doa10∆
  protein stability index: 3.01 ± 0.1
pdr5∆
  protein stability index: 2.54 ± 0.11
san1∆
  protein stability index: 3.22 ± 0.078
ubr1∆
  protein stability index: 2.76 ± 0.1

## PSLRDRRERRLIFGTIA [RPT3]
doa10∆
  protein stability index: 1.41 ± 0.08
pdr5∆
  protein stability index: 2.04 ± 0.099
san1∆
  protein stability index: 1.63 ± 0.079
ubr1∆
  protein stability index: 1.85 ± 0.07

## YDGVERVSLQDIKDFAD [QCR2]
doa10∆
  protein stability index: 2.84 ± 0.1
pdr5∆
  protein stability index: 2.75 ± 0.1
san1∆
  protein stability index: 2.5 ± 0.076
ubr1∆
  protein stability index: 2.41 ± 0.089

## NDLVKARDLLDDLEKTL [RPN9]
doa10∆
  protein stability index: 2.97 ± 0.092
pdr5∆
  protein stability index: 3.43 ± 0.097
san1∆
  protein stability index: 3.12 ± 0.091
ubr1∆
  protein stability index: 3.15 ± 0.087

## ATLPYIKQDIPIVIIFR [RPB2]
doa10∆
  protein stability index: 1.5 ± 0.063
pdr5∆
  protein stability index: 1.2 ± 0.049
san1∆
  protein stability index: 1.19 ± 0.12
ubr1∆
  protein stability index: 1.14 ± 0.041

## QISLNRLIDSMKQYSYL [RRI1]
doa10∆
  protein stability index: 2.43 ± 0.23
pdr5∆
  protein stability index: 2.29 ± 0.16
san1∆
  protein stability index: 2.48 ± 0.17
ubr1∆
  protein stability index: 3.11 ± 0.12

## VHPFHVLRINKMLSCAG [RPL10]
doa10∆
  protein stability index: 1.11 ± 0.086
pdr5∆
  protein stability index: 1.21 ± 0.075
san1∆
  protein stability index: 1.21 ± 0.092
ubr1∆
  protein stability index: 1.05 ± 0.06

## VEYLTRYVAGVQQRYTQ [PRE6]
doa10∆
  protein stability index: 1.47 ± 0.065
pdr5∆
  protein stability index: 1.89 ± 0.086
san1∆
  protein stability index: 1.65 ± 0.09
ubr1∆
  protein stability index: 1.66 ± 0.1

## HDVLQKLNTLSEILSFD [YML103C/NUP188]
doa10∆
  protein stability index: 2.99 ± 0.068
pdr5∆
  protein stability index: 3.2 ± 0.067
san1∆
  protein stability index: 3.03 ± 0.051
ubr1∆
  protein stability index: 3.14 ± 0.041

## TLDRNTAAETFKLFNKY [RPL8A]
doa10∆
  protein stability index: 3.03 ± 0.088
pdr5∆
  protein stability index: 3.19 ± 0.068
san1∆
  protein stability index: 3.08 ± 0.082
ubr1∆
  protein stability index: 2.94 ± 0.066

## RRNLRYGDRMKLAKNLQ [RPO31]
doa10∆
  protein stability index: 3.15 ± 0.091
pdr5∆
  protein stability index: 3.38 ± 0.073
san1∆
  protein stability index: 3.48 ± 0.079
ubr1∆
  protein stability index: 3.44 ± 0.067

## KAAFLGSEVRLRDDTLP [COR1]
doa10∆
  protein stability index: 2.54 ± 0.06
pdr5∆
  protein stability index: 2.98 ± 0.057
san1∆
  protein stability index: 2.93 ± 0.061
ubr1∆
  protein stability index: 2.68 ± 0.05

## EEYKQLVKDRKFLREVF [RPO21]
doa10∆
  protein stability index: 3.32 ± 0.078
pdr5∆
  protein stability index: 3.49 ± 0.076
san1∆
  protein stability index: 2.81 ± 0.084
ubr1∆
  protein stability index: 2.98 ± 0.11

## VKKTGENEISSLLAMHK [CDC53]
doa10∆
  protein stability index: 2.75 ± 0.3
pdr5∆
  protein stability index: 2.54 ± 0.12
san1∆
  protein stability index: 2.05 ± 0.3
ubr1∆
  protein stability index: 2.87 ± 0.25

## YILANHYLSRVLSDQVG [YJL039C/NUP192]
doa10∆
  protein stability index: 2.87 ± 0.064
pdr5∆
  protein stability index: 2.98 ± 0.078
san1∆
  protein stability index: 2.72 ± 0.07
ubr1∆
  protein stability index: 2.54 ± 0.049

## LDDEKIFSQTTNSTYNP [YJL039C/NUP192]
doa10∆
  protein stability index: 2.78 ± 0.061
pdr5∆
  protein stability index: 2.85 ± 0.053
san1∆
  protein stability index: 2.91 ± 0.062
ubr1∆
  protein stability index: 3.08 ± 0.045

## IPGLSAGVNNDNTKESK [RTT102]
doa10∆
  protein stability index: 3.59 ± 0.11
pdr5∆
  protein stability index: 3.52 ± 0.083
san1∆
  protein stability index: 3.38 ± 0.071
ubr1∆
  protein stability index: 3.35 ± 0.081

## YPFDKLESWWLVLGEVS [BRR2]
doa10∆
  protein stability index: 3.18 ± 0.18
pdr5∆
  protein stability index: 3.23 ± 0.15
san1∆
  protein stability index: 3.46 ± 0.11
ubr1∆
  protein stability index: 3.41 ± 0.24

## QPVNPKPFLKGLVNHRV [SMX3]
doa10∆
  protein stability index: 3.07 ± 0.054
pdr5∆
  protein stability index: 3.09 ± 0.057
san1∆
  protein stability index: 3.16 ± 0.041
ubr1∆
  protein stability index: 3.06 ± 0.055

## TLDKPNAEATKEEFSSA [CSE2]
doa10∆
  protein stability index: 2.99 ± 0.11
pdr5∆
  protein stability index: 3.12 ± 0.1
san1∆
  protein stability index: 3.23 ± 0.064
ubr1∆
  protein stability index: 3.13 ± 0.069

## HTIFSDVCKTRFNHLVT [YML031W/NDC1]
doa10∆
  protein stability index: 2.27 ± 0.045
pdr5∆
  protein stability index: 2.09 ± 0.044
san1∆
  protein stability index: 2.15 ± 0.051
ubr1∆
  protein stability index: 2.04 ± 0.034

## LNDEYNYPQLTEDILKE [YCS4]
doa10∆
  protein stability index: 2.91 ± 0.15
pdr5∆
  protein stability index: 3.12 ± 0.099
san1∆
  protein stability index: 3 ± 0.071
ubr1∆
  protein stability index: 3.49 ± 0.085

## MSGYDRALSIFSPDGHI [PRE6]
doa10∆
  protein stability index: 2.82 ± 0.12
pdr5∆
  protein stability index: 2.38 ± 0.14
san1∆
  protein stability index: 2.76 ± 0.09
ubr1∆
  protein stability index: 2.69 ± 0.077

## VSQVRVVPNEKADDDSV [ASC1]
doa10∆
  protein stability index: 2.72 ± 0.17
pdr5∆
  protein stability index: 3.11 ± 0.15
san1∆
  protein stability index: 3.06 ± 0.11
ubr1∆
  protein stability index: 2.6 ± 0.08

## FLLVPSKQVQVSQQPLS [ECM29]
doa10∆
  protein stability index: 1.81 ± 0.092
pdr5∆
  protein stability index: 1.92 ± 0.072
san1∆
  protein stability index: 1.42 ± 0.11
ubr1∆
  protein stability index: 2.17 ± 0.043

## LGAVAGLIPYPHHNQSP [RET1]
doa10∆
  protein stability index: 2.65 ± 0.094
pdr5∆
  protein stability index: 2.97 ± 0.071
san1∆
  protein stability index: 2.69 ± 0.055
ubr1∆
  protein stability index: 2.94 ± 0.065

## KKVVKKAFEERHQAGKN [RPL27A]
pdr5∆
  protein stability index: 3.83 ± 0.22

## FTNLGIIVQYLTKFRQK [RGR1]
doa10∆
  protein stability index: 2.46 ± 0.053
pdr5∆
  protein stability index: 2.64 ± 0.087
san1∆
  protein stability index: 2.35 ± 0.066
ubr1∆
  protein stability index: 2.28 ± 0.07

## CSRCGSVTRAGNIISSD [SIN4]
pdr5∆
  protein stability index: 3.33 ± 0.26
ubr1∆
  protein stability index: 3.03 ± 0.22

## LSTDATSADLKSKAEEL [UBP6]
doa10∆
  protein stability index: 3.17 ± 0.24
pdr5∆
  protein stability index: 2.64 ± 0.13
san1∆
  protein stability index: 2.95 ± 0.19
ubr1∆
  protein stability index: 3.11 ± 0.21

## SFGSKPTGKEEGDGAKA [YJL041W/NSP1]
doa10∆
  protein stability index: 3.59 ± 0.12
pdr5∆
  protein stability index: 3.31 ± 0.065
san1∆
  protein stability index: 3.48 ± 0.11
ubr1∆
  protein stability index: 3.21 ± 0.083

## KEEFRLMISPKDEETTE [RRI2]
doa10∆
  protein stability index: 1.75 ± 0.069
pdr5∆
  protein stability index: 1.68 ± 0.055
san1∆
  protein stability index: 1.14 ± 0.14
ubr1∆
  protein stability index: 1.5 ± 0.039

## NKLGNDPSLNLKLLAKS [BRR2]
doa10∆
  protein stability index: 2.64 ± 0.062
pdr5∆
  protein stability index: 2.56 ± 0.079
san1∆
  protein stability index: 2.86 ± 0.07
ubr1∆
  protein stability index: 2.55 ± 0.096

## VRKAITVLFFIGVRCYE [FAS1]
doa10∆
  protein stability index: 1.47 ± 0.087
pdr5∆
  protein stability index: 1.77 ± 0.075
san1∆
  protein stability index: 2.49 ± 0.098
ubr1∆
  protein stability index: 1.45 ± 0.064

## MTPLLVNCLELLINTNF [PCI8]
doa10∆
  protein stability index: 1.6 ± 0.037
pdr5∆
  protein stability index: 1.6 ± 0.042
san1∆
  protein stability index: 1.48 ± 0.078
ubr1∆
  protein stability index: 1.42 ± 0.057

## STYLPKLISAFDDLEVE [RRP42]
doa10∆
  protein stability index: 2.63 ± 0.051
pdr5∆
  protein stability index: 2.75 ± 0.042
san1∆
  protein stability index: 2.58 ± 0.05
ubr1∆
  protein stability index: 2.74 ± 0.032

## QSLGLDDLQKFNGIENQ [ISW2]
doa10∆
  protein stability index: 2.77 ± 0.1
pdr5∆
  protein stability index: 2.73 ± 0.082
san1∆
  protein stability index: 2.44 ± 0.07
ubr1∆
  protein stability index: 2.69 ± 0.043

## DEKGNEIKVGKQRFQGC [ARP9]
doa10∆
  protein stability index: 2.88 ± 0.18
pdr5∆
  protein stability index: 3.1 ± 0.17
san1∆
  protein stability index: 3.06 ± 0.1
ubr1∆
  protein stability index: 3.41 ± 0.1

## NTCTISTSKFESQYPIV [SWP82]
doa10∆
  protein stability index: 2.57 ± 0.089
pdr5∆
  protein stability index: 2.67 ± 0.11
san1∆
  protein stability index: 2.97 ± 0.074
ubr1∆
  protein stability index: 2.81 ± 0.071

## RSLLQEAIETCKNFEKT [GAL11]
pdr5∆
  protein stability index: 3.14 ± 0.15
san1∆
  protein stability index: 2.59 ± 0.19
ubr1∆
  protein stability index: 3.09 ± 0.081

## YDLMAPNGHISTKKIQV [YMR129W/POM152]
doa10∆
  protein stability index: 2.15 ± 0.08
pdr5∆
  protein stability index: 2.06 ± 0.07
san1∆
  protein stability index: 1.5 ± 0.085
ubr1∆
  protein stability index: 1.94 ± 0.05

## NDPSAEVRRAAMLNLIN [YCG1]
pdr5∆
  protein stability index: 3.42 ± 0.21
san1∆
  protein stability index: 2.72 ± 0.26

## EFIQDSAARGLSLVYEI [ECM29]
ubr1∆
  protein stability index: 3.64 ± 0.12

## LVYQYKGAGLSMGTMIC [PRE2]
doa10∆
  protein stability index: 2.06 ± 0.083
pdr5∆
  protein stability index: 2.3 ± 0.097
san1∆
  protein stability index: 2.18 ± 0.16
ubr1∆
  protein stability index: 2.24 ± 0.11

## VLVASAKGLQTVVVEED [RPL31A]
doa10∆
  protein stability index: 2.19 ± 0.1
pdr5∆
  protein stability index: 2.49 ± 0.11
san1∆
  protein stability index: 2.54 ± 0.087
ubr1∆
  protein stability index: 2.25 ± 0.094

## TLLESNLCKIIEPFECV [RPN6]
doa10∆
  protein stability index: 2.26 ± 0.085
pdr5∆
  protein stability index: 2.81 ± 0.12
san1∆
  protein stability index: 2.28 ± 0.12
ubr1∆
  protein stability index: 2.88 ± 0.16

## IKEIINASKVISTPIIN [RPO31]
doa10∆
  protein stability index: 3.08 ± 0.11
pdr5∆
  protein stability index: 1.88 ± 0.17
san1∆
  protein stability index: 1.03 ± 0.18
ubr1∆
  protein stability index: 1.53 ± 0.25

## EGAARGTSVYLVDKRID [DIS3]
doa10∆
  protein stability index: 3.38 ± 0.17
pdr5∆
  protein stability index: 3.33 ± 0.14
san1∆
  protein stability index: 3.13 ± 0.086
ubr1∆
  protein stability index: 3.08 ± 0.12

## VKVARLAGKYIPNLTAK [FAS1]
doa10∆
  protein stability index: 3.34 ± 0.25
pdr5∆
  protein stability index: 2.58 ± 0.22
ubr1∆
  protein stability index: 3.03 ± 0.14

## SMFSGLDSTGFDSTAFN [MED2]
doa10∆
  protein stability index: 3.05 ± 0.044
pdr5∆
  protein stability index: 3.17 ± 0.042
san1∆
  protein stability index: 3.19 ± 0.034
ubr1∆
  protein stability index: 3.104 ± 0.03

## MSQGQSKKLDVTVEQLR [NSL1]
doa10∆
  protein stability index: 2.64 ± 0.075
pdr5∆
  protein stability index: 2.74 ± 0.075
san1∆
  protein stability index: 2.7 ± 0.056
ubr1∆
  protein stability index: 2.78 ± 0.075

## EARINELLSSLEGKGSL [RPP2B]
doa10∆
  protein stability index: 2.74 ± 0.12
pdr5∆
  protein stability index: 2.79 ± 0.099
san1∆
  protein stability index: 2.91 ± 0.047
ubr1∆
  protein stability index: 3.2 ± 0.077

## VENELLQVDVDIAGQRD [RRP42]
doa10∆
  protein stability index: 1.36 ± 0.25
pdr5∆
  protein stability index: 2.12 ± 0.28
ubr1∆
  protein stability index: 1.14 ± 0.19
